Laboratory results from US20120052007A1, “PERIPHERAL BLOOD SPARC BINDING ANTIBODIES AND USES THEREOF” (ABRAXIS BIOSCIENCE, LLC, priority 2010, published 2012).

Tests used:
MDA-MB-435-Luc+ = MDA-MB-435-Luc+ orthotopic metastatic model; type: in vivo, mice
Method: MDA-MB-435-Luc+ were implanted orthotopic in mammary fat pad (MFP) at 4×10^6 cells in 50% Matrigel and allowed to reach average tumor volume of 180 mm^3 before treatment. Treatments were: 2 cycles of 10 mg/kg nab-paclitaxel, 4 mg/kg SPARC, and bevacizumab biweekly. At appropriate time interval, the following organs were harvested for quantitation of metastasis: Proximal lymph nodes, contralateral lymph nodes, lungs, liver and brain. Statistical tests used included t-test and Mann Whitney-U.
Mice were monitored 2-3 times a week and tumor growth was recorded. Mice were sorted when tumor volumes reached 180 mm^3, and the first cycle of treatment was administered. Seven rest days were given between the first and second cycle. Bevacizumab and SPARC were continually administered during the rest period. Weight was measured periodically throughout the study to assess toxic effects from the therapy.
The following dosing schedules were followed: Control (Group 1); 10 mg/kg nab-paclitaxel daily for 3 to 5 cycles (Group 2); 4 mg/kg soluble SPARC (Bio 1) injected i.v. biweekly (Group 3); and 10 mg/kg nab-paclitaxel daily for two to five cycles and 4 mg/kg SPARC-biweekly (Group 4).
Total metastatic burden was also calculated. It is presented as measured luciferase activity in tissue extracts expressed in RLU normalized per mg protein. All contralateral lymph nodes were negative for all groups. There were a few incidences of metastasis occurred in the proximal lymph node, liver and brain. […] Liver metastasis occurred somewhat frequently in the both control and SPARC groups (present in 3 mice in each group). There was also one control mouse that had brain metastasis.

PC3 (prostate) = test: PC3 prostate cancer xenograft; type: in vivo, mice; details: nab-paclitaxel 10 mg/kg, P<0.001 (FIG. 24D)
Method: (§1) Control animals for each xenograft were administered PBS. […] Animal weights were measured twice weekly.
(§2) These findings were further confirmed in the MDA-MB-231 breast cancer xenografts (FIG. 24C) and PC3 prostate cancer xenografts (FIG. 24D). […] In these experiments, nab-paclitaxel was dosed sub-optimally at 10 mg/kg, daily for five cycles.

[1] = tested on: human umbilical cord vein endothelial cells (HUVEC); test: HUVEC bead sprouting angiogenesis assay; type: cell-based; details: 5 days
Method: First, the effect of SPARC on sprouting was studied in an in vitro angiogenesis model system that was prepared using human umbilical cord vein endothelial cells (HUVEC) as described by Nakatsu et al (Methods Enzymol. 443:65-82 (2008)). Low passage HUVEC grown in M199 media supplemented with 10% FBS (Gibco, Carlsbad, Calif.) were switched to EGM-2 media (Clonetics, Walkersville, Md.) 2 days before beading. Cytodex 3 microcarrier beads (Amersham Pharmacia Biotech, Piscataway, N.J.) were hydrated and washed with PBS (pH 7.4). 1×10^6 HUVEC cells were incubated with 2500 hydrated and sterilized beads in EGM-2 medium for 4 hours at 37° C. for coating. The coated beads were next embedded in 2 mg/mL fibrinogen in PBS with 0.15 units/mL aprotinin at a concentration of 500 beads/mL. Next, 0.625 units/mL thrombin was added and 0.5 mL of the mixture was added to each well of a 24 well plate. The solution was allowed to clot at RT for 5 minutes and 37° C. for another 15 min. After clotting 20,000 lung fibroblast cells in EGM-2 media were seeded in each well. Either 1, 10 or 100 μg/mL BioI SPARC protein in PBS, or PBS without protein was added to the growth medium and cultures were maintained for 5 days until sprouting was evaluated by light microscopy. The number of tubes formed/bead and the morphology of sprouting HUVEC cells in the cultures were determined using image pro software (Media Cybernetics, Bethesda, Md.).

MDA-MB-231 (breast) = test: MDA-MB-231 breast cancer xenograft; type: in vivo, mice; details: MDA-MB-231 xenograft, nab-paclitaxel 10 mg/kg, P<0.001 (FIG. 24C)
Method: as §1, §2

[2] = tested on: endothelial cell tubule formation; test: TCS Cellworks AngioKit tubule formation assay; type: cell-based, human; details: 11 days
Excerpt: Next, the effect of SPARC on tubule formation was examined using the TCS cellworks human Angiokit model kit (TCS-ZHA-1000, TCS Cell Works Buckingham, UK). In this assay, the endothelial cells initially form small islands within the culture matrix. They subsequently begin to proliferate and then enter a migratory phase during which they move through the matrix to form threadlike tubule structures. These gradually join up (by 9-11 days) to form a network of anastomosing tubules which closely resembles a capillary bed.
24-well pre-seeded endothelial cell tissue culture plates containing early stage co-cultures (day 2-3) were used according to manufacturer's recommendations (TCS Cell Works, Buckingham, UK). The cultures were incubated at 37° C./5% CO2 for 11 days. Media on the cultures was changed with added test and control compounds on days 4, 7 and 9 after initial treatment, followed by fixation with 70% ethanol on day 11. Fixed cultures were subsequently stained as follows: Primary rabbit anti-CD31 antibody (Thermo Scientific) was diluted to a final concentration of 2 μg/mL in PBS/1% BSA blocking buffer. Then, 0.5 mL of diluted anti-CD31 antibody was added to each well and incubated for 1 h at 37° C. […]
The number and lengths of tubules formed were then evaluated by light microscopy. […] Total vessel number, total tubule area and the number of branch points can be similarly determined.

[3] = tested on: recombinant human SPARC protein; test: Tube Formation Assay (AngioKit) with SPARC and SPARC binding antibodies; type: cell-based; details: 10 μg/mL recombinant human SPARC in the culture media
Method: This assay was performed using the TCS Cellworks human AngioKit model kit (TCS-ZHA-1000, TCS Cell Works, Buckingham, UK) as described in Example 10 above. The media contained 10 μg/mL recombinant human SPARC protein. The media also contained 300 μg/mL of one of the above prepared mouse SPARC binding monoclonal antibodies (Imm12, Imm14, mHTI), or a control (mouse IgG).
To examine the effect of SPARC on tubule formation, and interference with that function by SPARC binding monoclonal antibodies, the number of tubules formed and their length was evaluated by light microscopy.

HT29 (colon) = tested on: HT29 (colon)
Excerpt: Female and male athymic NCr-nu mice between 5 and 6 weeks of age weighing approximately 20 g were purchased from Harlan, Inc. (Madison, Wis., USA). Human cancer cells HT29 (colon), PC3 (prostate), and MDA-MB-231 (breast) were propagated in cell culture and implanted subcutaneously at one million cells per flank of female (for MDA-MB-231 and HT29) or male (for PC3 prostate tumor) nude mice and allowed to grow to approximately 60-100 mm^3 before treatment was initiated. Treatments included 5-fluorouracil (5FU), docetaxel (Taxotere®), albumin-bound paclitaxel (nab-paclitaxel), nab-paclitaxel plus suntinib malate (Sutent®), or nab-paclitaxel plus bevacizumab (Avastin®) with or without exogenously administered SPARC). Control animals for each xenograft were administered PBS. The longest (length) and shortest (width) tumor diameters (millimeter) and tumor depth were measured twice weekly. The tumor volume was calculated with the formula: tumor volume (mm3)=width×length×depth. Tumor growth inhibition (TGI) was defined as the percentage of tumor volume reduction compared with the control group at the time of euthanasia for the control animals. Tumor doubling time was defined as the time required for the tumor volume to double […]. Animal weights were measured twice weekly. Statistical analysis was performed using the Prism program (GraphPad, San Diego, Calif., USA). Analysis of variance (ANOVA) statistic was used to compare tumor growth curves.

B1: SPARC: recombinant wild-type human SPARC (BIO1), exogenously administered (protein)
chain: APQQEALPDETEVVEETVAEVTEVSVGANPVQVEVGEFDDGAEETEEEVVAENPCQNHHCKHGKVCELDENNTPMCVCQDPTSCPAPIGEFEKVCSNDNKTFDSSCHFFATKCTLEGTKKGHKLHLDYIGPCKYIPPCLDSELTEFPLRMRDWLKNVLVTLYERDEDNNLLTEKQKLRVKKIHENEKRLEAGDHPVELLARDFEKNYNMYIFPVHWQFGQLDQHPIDGYLSHTELAPLRAPLIPMEHCTTRFFETCDLDNDKYIALDEWAGCFGIKQKDIDKDLVI
tumor growth rate (MDA-MB-435-Luc+; MDA-MB-435-Luc+ mammary fat pad tumors): 23.16±4.38 mm3/day
average tumor volume (MDA-MB-435-Luc+; in 63 days): 1765 mm3
lung metastatic burden, average RLU/mg total protein (MDA-MB-435-Luc+; luciferase activity in lung tissue extracts): 31630±10820 RLU/mg total protein
mice positive for lung metastasis (MDA-MB-435-Luc+; mouse, in vivo): 9 of 9
mice with liver metastasis (MDA-MB-435-Luc+; mouse, in vivo): 3 mice
Tumor Volume on day 56 (MDA-MB-435-Luc+; mouse, in vivo, in mm³ (unit assumed)): 1524
% Inhibition (MDA-MB-435-Luc+; tumor volume on day 56): 35%
effect of SPARC administration on antitumor effects of nab-paclitaxel and bevacizumab (PC3 (prostate)): significantly inhibited
seeded HUVEC/beads that had developed sprouts ([1]; 1 μg/mL SPARC): less than 50%
average sprouts/bead ([1]; 10 μg/mL SPARC): 0.9 sprouts/bead
average sprouts/bead ([1]; 100 μg/mL SPARC): 1.9 sprouts/bead
effect of SPARC administration on antitumor effects of nab-paclitaxel and suntinib (MDA-MB-231 (breast)): significantly inhibited
angiogenic activity (tubule formation) ([2]; high concentration of SPARC (100 μg/mL)): significantly inhibited angiogenesis
angiogenic activity (tubule formation) ([2]; low concentrations of SPARC (1 and 10 μg/mL)): stimulate angiogenesis
tubule formation [3]: formation of numerous long tubules
impact of SPARC treatment on the nab-paclitaxel/bevacizumab combination (HT29 (colon); HT29 xenograft (FIG. 24B)): minimal negative impact
Tumor growth inhibition (TGI) (HT29 (colon); HT29 xenograft, versus control group at euthanasia of control animals): 35.4%
